Laboratory results as given in patent US20130202594A1, “ALK1 Antagonists and Their Uses in Treating Renal Cell Carcinoma” (priority 2012, published 2013).
Entries after “also recorded” stand apart in the source; their conditions may differ.

Legend:
advanced RCC = conditions: cited from earlier work
[1] = test system: angiogenesis in chick chorioallantoic membrane; experiment: CAM (chick chorioallantoic membrane) angiogenesis assay; format: in vivo
Description: In preferred embodiments, an ALK1 ECD polypeptide binds to one or more of GDF5, GDF6, GDF7, BMP9 and BMP10. […] Binding may be assessed using purified proteins in solution or in a surface plasmon resonance system, such as a Biacore™ system. […] Bioassays for angiogenesis inhibitory activity include the chick chorioallantoic membrane (CAM) assay, the mouse corneal micropocket assay, or an assay known in the art for measuring the effect of administering isolated or synthesized proteins on implanted tumors. The CAM assay is described by O'Reilly, et al., in “Angiogenic Regulation of Metastatic Growth” Cell, 1994; 79 (2):315-328. Briefly, 3 day old chicken embryos with intact yolks are separated from the egg and placed in a petri dish. After 3 days of incubation, a methylcellulose disc containing the protein to be tested is applied to the CAM of individual embryos. After 48 hours of incubation, the embryos and CAMs are observed to determine whether endothelial growth has been inhibited. The mouse corneal micropocket assay involves implanting a growth factor-containing pellet, along with another pellet containing the suspected endothelial growth inhibitor, in the cornea of a mouse and observing the pattern of capillaries that are elaborated in the cornea. Other assays are described in the Examples.
VEGF and FGF are well-known to stimulate angiogenesis. A CAM (chick chorioallantoic membrane) assay system was used to assess the angiogenic effects of GDF7.
ALK1-Fc fusions were tested for anti-angiogenic activity in the CAM assay.
ALK1-Fc proteins and a commercially available, anti-angiogenic anti-VEGF monoclonal antibody were compared in the CAM assay. The ALK1-Fc proteins had similar potency as compared to anti-VEGF. The anti-VEGF antibody bevacizumab is currently used in the treatment of cancer and macular degeneration in humans.

[2] = test system: collagen-induced arthritis; experiment: Murine collagen-induced arthritis (CIA) model of rheumatoid arthritis; format: in vivo, mouse; conditions: bevacizumab treated mice; day 42
Protocol: RAP-041 is mALK1-Fc. Avastin™ is the anti-VEGF antibody bevacizumab.
The murine collagen-induced arthritis model is a well-accepted model of rheumatoid arthritis. […] Nonetheless, a dose-related trend is apparent.
By study termination at day 42 the incidence of arthritis had reached 10/10 in the vehicle control treated mice, 9/10 in the bevacizumab treated mice, 8/10 in the mALK1-Fc at 1 mg/kg treated group and 9/10 in the mALK1-Fc 10 mg/kg treated group. In the mALK1-Fc 25 mg/kg treated group disease incidence was lower at 6/10.

[3] = test system: angiogenesis in chick chorioallantoic membrane; experiment: CAM assay of BMP9 and anti-BMP9 with or without VEGF; format: in vivo; conditions: for effect on angiogenesis in the presence of VEGF: VEGF-mediated angiogenesis
Description: A CAM (chick chorioallantoic membrane) assay system was used to assess the angiogenic effects of recombinant human BMP9 (rhB9) and anti-BMP9 monoclonal antibody (mabB9) (R&D Systems, Minneapolis, Minn., Cat. No. MAB3209). This antibody is known to neutralize BMP9/ALK1 signaling. See, e.g., Scharpfenecker et al., J Cell Sci. 2007 Mar. 15; 120(Pt 6):964-72; David et al., (2007); Blood March 1; 109(5):1953-61; David et al., Circ. Res. 2008 Apr. 25; 102(8):914-22.
In the absence of VEGF, both proteins were used at the 50 ng dosed 1×/day on days 1 and 3 in the 5-day cycle. […] However, the effects of the anti-BMP9 antibody are in remarkable contrast to the published literature.

## CCN(CC)CCNC(=O)c1c(C)[nH]c(/C=C2\C(=O)Nc3ccc(F)cc32)c1C [sunitinib]
Advanced RCC; RCC patients, to manage toxicities
  patients requiring dose reductions: 50%

## PDGF
[1]
  angiogenic effect (stimulation of angiogenesis): relatively poor capability to induce angiogenesis

## bevacizumab
[2]
  incidence of arthritis: 9/10

## interferon-alpha
Advanced RCC; patients with advanced disease
  overall survival: 21.8 months

B1: GDF7: growth differentiation factor, ALK1 ligand tested in CAM assay (protein)
chain: TALAGTRTAQGSGGGAGRGHGRRGRSRCSRKPLHVDFKELGWDDWIIAPLDYEAYHCEGLCDFPLRSHLEPTNHAIIQTLLNSMAPDAAPASCCVPARLSPISILYIDAANNVVYKQYEDMVVEACGCR
[1]
  angiogenic effect (stimulation of angiogenesis): stimulates angiogenesis with a potency that is similar to that of VEGF; also recorded: comparable to that of VEGF

B2: rhB9: recombinant human BMP9 (protein)
chain: SAGAGSHCQKTSLRVNFEDIGWDSWIIAPKEYEAYECKGGCFFPLADDVTPTKHAIVQTLVHLKFPTKVGKACCVPTKLSPISVLYKDDMGVPTLKYHYEGMSVAECGCR
[1]
  angiogenic effect (stimulation of angiogenesis): relatively poor capability to induce angiogenesis
[3]; 50 ng 1×/day on days 1 and 3
  effect on angiogenesis in the absence of exogenous VEGF: Neither BMP9 nor anti-BMP9 had a substantial effect on angiogenesis
[3]
  effect on angiogenesis in the presence of VEGF: inhibit VEGF-mediated angiogenesis
[3]; listed as BMP9
  effect on angiogenesis in the presence of VEGF: substantial anti-angiogenic effect
